The supplement of paper PMC10567573

B1: ACSBG2 (parent)
chain: TPMTIPEFFRESVNRFGTYPALAS

Variants of: B1
Assay: protein stability index of a GFP-peptide fusion (GPS, HEK-293T) (PSI 1-6); higher = more stable
Settings: c terminus: a fixed tail appended
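Further: lentivirally expressed fusions sorted by FACS into six bins by GFP to DsRed ratio, PSI derived from sequencing read proportions per bin multiplied by bin number.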

| Variant | protein stability index |
| --- | --- |
| TPMTIPEFFRESVNRFGTYPALPS | 2.2 |
| TPMTIPEFFRESVNRFGTYPALCS | 1.77 |
| TPMTIPEFFRESVNRFGTYPALIS | 2.37 |
| TPMTIPEFFRESVNRFGTYPALTS | 2.33 |
| TPMTIPEFFRESVNRFGTYPALFS | 1.67 |
| TPMTIPEFFRESVNRFGTYPALGS | 2.2 |
| TPMTIPEFFRESVNRFGTYPALLS | 2.19 |
| TPMTIPEFFRESVNRFGTYPALQS | 2.69 |
| TPMTIPEFFRESVNRFGTYPALVS | 1.66 |
| TPMTIPEFFRESVNRFGTYPALHS | 2.43 |
| TPMTIPEFFRESVNRFGTYPALMS | 1.97 |
| TPMTIPEFFRESVNRFGTYPALRS | 2.56 |
| TPMTIPEFFRESVNRFGTYPALNS | 2.5 |
| TPMTIPEFFRESVNRFGTYPALSS | 2.56 |
| TPMTIPEFFRESVNRFGTYPALKS | 2.71 |
| TPMTIPEFFRESVNRFGTYPALYS | 1.82 |
| TPMTIPEFFRESVNRFGTYPALDS | 2.88 |
| TPMTIPEFFRESVNRFGTYPALES | 2.61 |
| TPMTIPEFFRESVNRFGTYPALWS | 2.55 |
| TPMTIPEFFRESVNRFGGYPALAS | 2.17 |
| TPMTIPEFFRESVNRFGRYPALAS | 2.17 |
| TPMTIPEFFRESVNRFGDYPALAS | 2.9 |
| TPMTIPEFFRESVNRFGSYPALAS | 2.06 |
| TPMTIPEFFRESVNRFGAYPALAS | 1.89 |

| Variant | protein stability index |
| --- | --- |
| TPMTIPEFFRESVNRFGPYPALAS | 2.08 |
| TPMTIPEFFRESVNRFGNYPALAS | 2.35 |
| TPMTIPEFFRESVNRFGMYPALAS | 1.74 |
| TPMTIPEFFRESVNRFGKYPALAS | 2.77 |
| TPMTIPEFFRESVNRFGVYPALAS | 2.29 |
| TPMTIPEFFRESVNRFGEYPALAS | 3.05 |
| TPMTIPEFFRESVNRFGIYPALAS | 2.02 |
| TPMTIPEFFRESVNRFGYYPALAS | 2.09 |
| TPMTIPEFFRESVNRFGHYPALAS | 2.1 |
| TPMTIPEFFRESVNRFGFYPALAS | 1.9 |
| TPMTIPEFFRESVNRFGCYPALAS | 2.35 |
| TPMTIPEFFRESVNRFGQYPALAS | 2.02 |
| TPMTIPEFFRESVNRFGLYPALAS | 2.31 |
| TPMTIPEFFRESVNRFGWYPALAS | 1.49 |
| TPMTIPEFFRESVNDFGTYPALAS | 2.78 |
| TPMTIPEFFRESVNSFGTYPALAS | 2.64 |
| TPMTIPEFFRESVNEFGTYPALAS | 2.62 |
| TPMTIPEFFRESVNVFGTYPALAS | 2.41 |
| TPMTIPEFFRESVNAFGTYPALAS | 2.41 |
| TPMTIPEFFRESVNMFGTYPALAS | 1.8 |
| TPMTIPEFFRESVNQFGTYPALAS | 2.69 |
| TPMTIPEFFRESVNWFGTYPALAS | 1.52 |
| TPMTIPEFFRESVNHFGTYPALAS | 2.14 |
| TPMTIPEFFRESVNKFGTYPALAS | 2.1 |

| Variant | protein stability index |
| --- | --- |
| TPMTIPEFFRESVNNFGTYPALAS | 2.5 |
| TPMTIPEFFRESVNIFGTYPALAS | 2.24 |
| TPMTIPEFFRESVNFFGTYPALAS | 2.25 |
| TPMTIPEFFRESVNYFGTYPALAS | 1.99 |
| TPMTIPEFFRESVNCFGTYPALAS | 2.12 |
| TPMTIPEFFRESVNTFGTYPALAS | 2.57 |
| TPMTIPEFFRESVNGFGTYPALAS | 1.97 |
| TPMTIPEFFRESVNPFGTYPALAS | 2.04 |
| TPMTIPEFFRESVNLFGTYPALAS | 2.38 |
| TPMTIPEFFRESVYRFGTYPALAS | 1.88 |
| TPMTIPEFFRESVSRFGTYPALAS | 2.51 |
| TPMTIPEFFRESVVRFGTYPALAS | 1.93 |
| TPMTIPEFFRESVWRFGTYPALAS | 1.74 |
| TPMTIPEFFRESVTRFGTYPALAS | 2.23 |
| TPMTIPEFFRESVNRFGTYAALAS | 1.89 |
| TPMTIPEFFRESVNRFGTYWALAS | 2.11 |
| TPMTIPEFFRESVNRFGTYLALAS | 2.63 |
| TPMTIPEFFRESVNRFGTYHALAS | 1.92 |
| TPMTIPEFFRESVNRFGTYQALAS | 1.71 |
| TPMTIPEFFRESVNRFGTYIALAS | 2.34 |
| TPMTIPEFFRESVNRFGTYDALAS | 2.67 |
| TPMTIPEFFRESVNRFGTYNALAS | 2.11 |
| TPMTIPEFFRESVNRFGTYCALAS | 1.97 |
| TPMTIPEFFRESVNRFGTYTALAS | 1.48 |

| Variant | protein stability index |
| --- | --- |
| TPMTIPEFFRESVNRFGTYYALAS | 1.56 |
| TPMTIPEFFRESVNRFGTYRALAS | 2.18 |
| TPMTIPEFFRESVNRFGTYVALAS | 2.41 |
| TPMTIPEFFRESVNRFGTYMALAS | 2.87 |
| TPMTIPEFFRESVNRFGTYKALAS | 2.39 |
| TPMTIPEFFRESVNRFGTYSALAS | 2.04 |
| TPMTIPEFFRESVNRFGTYEALAS | 2.4 |
| TPMTIPEFFRESVNRFGTYGALAS | 2.3 |
| TPMTIPEFFRESVNRFGTYFALAS | 2.49 |
| TPMTIPEFFRESVNRFGTYPWLAS | 2.53 |
| TPMTIPEFFRESVNRFGTYPCLAS | 1.88 |
| TPMTIPEFFRESVNRFGTYPMLAS | 2.26 |
| TPMTIPEFFRESVNRFGTYPDLAS | 2.84 |
| TPMTIPEFFRESVNRFGTYPHLAS | 2.32 |
| TPMTIPEFFRESVNRFGTYPRLAS | 2.16 |
| TPMTIPEFFRESVNRFGTYPYLAS | 2.17 |
| TPMTIPEFFRESVNRFGTYPGLAS | 2.47 |
| TPMTIPEFFRESVNRFGTYPSLAS | 2.31 |
| TPMTIPEFFRESVNRFGTYPQLAS | 2.5 |
| TPMTIPEFFRESVNRFGTYPTLAS | 2.02 |
| TPMTIPEFFRESVNRFGTYPKLAS | 2.87 |
| TPMTIPEFFRESVNRFGTYPVLAS | 1.78 |
| TPMTIPEFFRESVNRFGTYPFLAS | 1.65 |
| TPMTIPEFFRESVNRFGTYPILAS | 2.23 |

| Variant | protein stability index |
| --- | --- |
| TPMTIPEFFRESVNRFGTYPELAS | 2.69 |
| TPMTIPEFFRESVNRFGTYPLLAS | 1.77 |
| TPMTIPEFFRESVNRFGTYPNLAS | 2.19 |
| TPMTIPEFFRESVNRFGTYPPLAS | 2.32 |
| TPMTIPEFFRESVNRFGTQPALAS | 2.91 |
| TPMTIPEFFRESVNRFGTHPALAS | 2.77 |
| TPMTIPEFFRESVNRFGTMPALAS | 2.77 |
| TPMTIPEFFRESVNRFGTDPALAS | 3.44 |
| TPMTIPEFFRESVNRFGTWPALAS | 2.38 |
| TPMTIPEFFRESVNRFGTRPALAS | 3.17 |
| TPMTIPEFFRESVNRFGTAPALAS | 2.82 |
| TPMTIPEFFRESVNRFGTCPALAS | 2.19 |
| TPMTIPEFFRESVNRFGTLPALAS | 2.38 |
| TPMTIPEFFRESVNRFGTTPALAS | 2.76 |
| TPMTIPEFFRESVNRFGTIPALAS | 2.78 |
| TPMTIPEFFRESVNRFGTKPALAS | 2.8 |
| TPMTIPEFFRESVNRFGTPPALAS | 2.87 |
| TPMTIPEFFRESVNRFGTVPALAS | 2.71 |
| TPMTIPEFFRESVNRFGTFPALAS | 2.52 |
| TPMTIPEFFRESVNRFGTGPALAS | 2.73 |
| TPMTIPEFFRESVNRFGTNPALAS | 2.84 |
| TPMTIPEFFRESVNRFGTEPALAS | 3.37 |
| TPMTIPEFFRESVNRFGTSPALAS | 2.54 |
| TPMTIPEFFRESVNRWGTYPALAS | 2.16 |

| Variant | protein stability index |
| --- | --- |
| TPMTIPEFFRESVNRSGTYPALAS | 2.71 |
| TPMTIPEFFRESVNREGTYPALAS | 3.37 |
| TPMTIPEFFRESVNRPGTYPALAS | 2.92 |
| TPMTIPEFFRESVNRQGTYPALAS | 2.8 |
| TPMTIPEFFRESVNRRGTYPALAS | 2.86 |
| TPMTIPEFFRESVNRAGTYPALAS | 3.51 |
| TPMTIPEFFRESVNRKGTYPALAS | 3.22 |
| TPMTIPEFFRESVNRDGTYPALAS | 3.62 |
| TPMTIPEFFRESVNRMGTYPALAS | 3.39 |
| TPMTIPEFFRESVNRCGTYPALAS | 2.54 |
| TPMTIPEFFRESVNRGGTYPALAS | 2.48 |
| TPMTIPEFFRESVNRVGTYPALAS | 2.64 |
| TPMTIPEFFRESVNRIGTYPALAS | 2.36 |
| TPMTIPEFFRESVNRLGTYPALAS | 2.11 |
| TPMTIPEFFRESVNRHGTYPALAS | 3.03 |
| TPMTIPEFFRESVNRTGTYPALAS | 2.87 |
| TPMTIPEFFRESVNRNGTYPALAS | 3.41 |
| TPMTIPEFFRESVNRYGTYPALAS | 2.22 |
| TPMTIPEFFRESVNRFGTYPALAC | 2.03 |
| TPMTIPEFFRESVNRFGTYPALAI | 1.48 |
| TPMTIPEFFRESVNRFGTYPALAH | 1.93 |
| TPMTIPEFFRESVNRFGTYPALAN | 2.64 |
| TPMTIPEFFRESVNRFGTYPALAD | 2.87 |
| TPMTIPEFFRESVNRFGTYPALAF | 1.58 |

| Variant | protein stability index |
| --- | --- |
| TPMTIPEFFRESVNRFGTYPALAM | 2.67 |
| TPMTIPEFFRESVNRFGTYPALAK | 2.45 |
| TPMTIPEFFRESVNRFGTYPALAE | 2.83 |
| TPMTIPEFFRESVNRFGTYPALAL | 2.04 |
| TPMTIPEFFRESVNRFGTYPALAG | 2.18 |
| TPMTIPEFFRESVNRFGTYPALAA | 2.06 |
| TPMTIPEFFRESVNRFETYPALAS | 2.35 |
| TPMTIPEFFRESVNRFKTYPALAS | 2.27 |
| TPMTIPEFFRESVNRFATYPALAS | 1.78 |
| TPMTIPEFFRESVNRFFTYPALAS | 1.8 |
| TPMTIPEFFRESVNRFLTYPALAS | 1.95 |
| TPMTIPEFFRESVNRFMTYPALAS | 2.17 |
| TPMTIPEFFRESVNRFNTYPALAS | 2.34 |
| TPMTIPEFFRESVNRFCTYPALAS | 1.43 |
| TPMTIPEFFRESVNRFWTYPALAS | 2.12 |
| TPMTIPEFFRESVNRFPTYPALAS | 2.22 |
| TPMTIPEFFRESVNRFDTYPALAS | 2.76 |
| TPMTIPEFFRESVNRFQTYPALAS | 1.86 |
| TPMTIPEFFRESVNRFHTYPALAS | 2.28 |
| TPMTIPEFFRESVNRFVTYPALAS | 2.1 |
| TPMTIPEFFRESVNRFYTYPALAS | 2.04 |
| TPMTIPEFFRESVNRFSTYPALAS | 2.62 |
| TPMTIPEFFRESVNRFRTYPALAS | 2.42 |
| TPMTIPEFFRESVNRFITYPALAS | 1.97 |

| Variant | protein stability index |
| --- | --- |
| TPMTIPEFFRESVNRFTTYPALAS | 1.91 |
| TPMTIPEFFRESVNRFGTYPAEAS | 3.37 |
| TPMTIPEFFRESVNRFGTYPAFAS | 2.63 |
| TPMTIPEFFRESVNRFGTYPATAS | 2.88 |
| TPMTIPEFFRESVNRFGTYPADAS | 3.19 |
| TPMTIPEFFRESVNRFGTYPASAS | 3.04 |
| TPMTIPEFFRESVNRFGTYPAPAS | 2.63 |
| TPMTIPEFFRESVNRFGTYPAQAS | 2.5 |
| TPMTIPEFFRESVNRFGTYPAAAS | 2.51 |
| TPMTIPEFFRESVNRFGTYPANAS | 3.45 |
| TPMTIPEFFRESVNRFGTYPAHAS | 2.61 |
| TPMTIPEFFRESVNRFGTYPARAS | 3.12 |
| TPMTIPEFFRESVNRFGTYPAIAS | 2.34 |
| TPMTIPEFFRESVNRFGTYPAKAS | 3.08 |
| TPMTIPEFFRESVNRFGTYPAWAS | 2.57 |
| TPMTIPEFFRESVNRFGTYPAMAS | 1.88 |
| TPMTIPEFFRESVNRFGTYPACAS | 2.54 |
| TPMTIPEFFRESVNRFGTYPAYAS | 1.93 |
| TPMTIPEFFRESVNRFGTYPAGAS | 3 |
| TPMTIPEFFRESVNRFGTYPAVAS | 2.02 |
